In paper PMC11467351:

Molecular target: ButCD complex of B. fragilis GS077 (B. fragilis GS077 (endogenous))
Test: cryo-EM structure

stoichiometry N: 2
Substance: ButCD complex of B. fragilis GS077
